Paper PMC9375587

How the values were obtained:
[1] = target: 2 CP-dimeric MPO complex (CP-MPO-MPO-CP) (human (endogenous in donor blood plasma) | human) (UniProt P00450); assay: solid-phase enzyme assay
[2] = target: Myeloperoxidase (MPO), native, dimeric (human) (UniProt P05164); assay: SPR

Kd [1] | Kd [2] | koff [2] | kon [2] | Substance
46 nM | – | – | – | Alpha-thrombin (FIIa) (enzyme)
– | 327 nM | 0.422 s⁻¹ | 12900 M⁻¹ s⁻¹ | Ceruloplasmin proteolyzed by thrombin (FIIa) (from UniProt P00450 501-906) (natural protein)
